Tests used:
Assay in all cases: cell-based or functional assay
[1] = target: HIV-1 envelope of pseudovirus HIV-001428-2.42 (HIV-1)
[2] = target: HIV-1 envelope of pseudovirus Du172.17 (HIV-1)
[3] = target: HIV-1 envelope of pseudovirus 231966.c02 (HIV-1)
[4] = target: HIV-1 envelope spike of pseudovirus QH0692.42 (HIV-1)
[5] = target: HIV-1 envelope of pseudovirus TRJO4551.58 (HIV-1)
[6] = target: HIV-1 Env of pseudovirus Ce2060_G9 (HIV-1)
[7] = target: HIV-1 envelope of pseudovirus MS208.A1 (HIV-1)
[8] = target: HIV-1 Env of pseudovirus 6244_13_85_4576 (HIV-1)
[9] = target: HIV-1 Env of pseudovirus 3016.v5.c45 (HIV-1)
[10] = target: HIV-1 envelope of pseudovirus BF1266.431a (HIV-1)
[11] = target: HIV-1 envelope of pseudovirus 6952.v1.c20 (HIV-1)
[12] = target: HIV-1 Env of pseudovirus ZM247v1(Rev-) (HIV-1)
[13] = target: HIV-1 Env of pseudovirus HIV-001428-2.42 (HIV-1)
[14] = target: HIV-1 Env of pseudovirus Ce2010_F5 (HIV-1)
[15] = target: HIV-1 Env of pseudovirus SC422661.8 (HIV-1)
[16] = target: HIV-1 Env of pseudovirus BF1266.431a (HIV-1)
[17] = target: HIV-1 envelope of pseudovirus 6811.v7.c18 (HIV-1)
[18] = target: HIV-1 Env of pseudovirus 249M B10 (HIV-1)
[19] = target: HIV-1 envelope of pseudovirus Ce0393_C3 (HIV-1)
[20] = target: HIV-1 Env of pseudovirus 620345.c01 (HIV-1)
[21] = target: HIV-1 Env of pseudovirus HIV-0013095-2.11 (HIV-1)
[22] = target: HIV-1 envelope of pseudovirus A07412M1.vrc12 (HIV-1)
[23] = target: HIV-1 Env of pseudovirus T278-50 (HIV-1)
[24] = target: HIV-1 Env of pseudovirus Du156.12 (HIV-1)
[25] = target: HIV-1 Env of pseudovirus R1166.c01 (HIV-1)
[26] = target: HIV-1 Env of pseudovirus CAP45.2.00.G3 (HIV-1)
[27] = target: HIV-1 Env of pseudovirus MS208.A1 (HIV-1)
[28] = target: HIV-1 Env of pseudovirus Ce1172_H1 (HIV-1)
[29] = target: HIV-1 Env of pseudovirus 191821_E6_1 (HIV-1)
[30] = target: HIV-1 Env of pseudovirus 3817.v2.c59 (HIV-1)
[31] = target: HIV-1 envelope spike of pseudovirus YU-2 (HIV-1) (UniProt P35961)
[32] = target: HIV-1 Env of pseudovirus 191084 B7-19 (HIV-1)
[33] = target: HIV-1 Env of pseudovirus 0815.v3.c3 (HIV-1)
[34] = target: HIV-1 envelope of pseudovirus ZM214M.PL15 (HIV-1)
[35] = target: HIV-1 envelope of pseudovirus CNE20 (HIV-1)
[36] = target: HIV-1 envelope of pseudovirus Ce2010_F5 (HIV-1)
[37] = target: HIV-1 Env of pseudovirus ZM197M.PB7 (HIV-1)
[38] = target: HIV-1 Env of pseudovirus 235-47 (HIV-1)
[39] = target: HIV-1 envelope spike of pseudovirus SS1196.1 (HIV-1)
[40] = target: HIV-1 Env of pseudovirus 9004SS_A3_4 (HIV-1)
[41] = target: HIV-1 envelope of pseudovirus CNE30 (HIV-1)
[42] = target: HIV-1 envelope of pseudovirus Ce0682_E4 (HIV-1)
[43] = target: HIV-1 Env of pseudovirus C2101.c01 (HIV-1)
[44] = target: HIV-1 envelope of pseudovirus 3415.v1.c1 (HIV-1)
[45] = target: HIV-1 envelope of pseudovirus BJOX015000.11.5 (HIV-1)
[46] = target: HIV-1 Env of pseudovirus Ce0682_E4 (HIV-1)
[47] = target: HIV-1 envelope of pseudovirus 620345.c01 (HIV-1)
[48] = target: HIV-1 Env of pseudovirus Q259.d2.17 (HIV-1)
[49] = target: HIV-1 envelope of pseudovirus PVO.4 (HIV-1)
[50] = target: HIV-1 Env of pseudovirus Ce703010054_2A2 (HIV-1)

Sequence of 10-996 (antibody) (VH): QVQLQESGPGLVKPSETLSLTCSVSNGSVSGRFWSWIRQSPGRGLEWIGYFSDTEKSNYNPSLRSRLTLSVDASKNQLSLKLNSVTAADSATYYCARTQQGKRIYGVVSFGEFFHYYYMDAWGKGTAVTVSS
Sequence of 10-996 (antibody) (VL): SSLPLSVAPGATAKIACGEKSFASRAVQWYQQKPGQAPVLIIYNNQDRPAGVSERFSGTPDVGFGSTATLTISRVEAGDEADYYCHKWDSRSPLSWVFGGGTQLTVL
Sequence of HIV-1 envelope spike of pseudovirus YU-2 (HIV-1) (P35961 32-843): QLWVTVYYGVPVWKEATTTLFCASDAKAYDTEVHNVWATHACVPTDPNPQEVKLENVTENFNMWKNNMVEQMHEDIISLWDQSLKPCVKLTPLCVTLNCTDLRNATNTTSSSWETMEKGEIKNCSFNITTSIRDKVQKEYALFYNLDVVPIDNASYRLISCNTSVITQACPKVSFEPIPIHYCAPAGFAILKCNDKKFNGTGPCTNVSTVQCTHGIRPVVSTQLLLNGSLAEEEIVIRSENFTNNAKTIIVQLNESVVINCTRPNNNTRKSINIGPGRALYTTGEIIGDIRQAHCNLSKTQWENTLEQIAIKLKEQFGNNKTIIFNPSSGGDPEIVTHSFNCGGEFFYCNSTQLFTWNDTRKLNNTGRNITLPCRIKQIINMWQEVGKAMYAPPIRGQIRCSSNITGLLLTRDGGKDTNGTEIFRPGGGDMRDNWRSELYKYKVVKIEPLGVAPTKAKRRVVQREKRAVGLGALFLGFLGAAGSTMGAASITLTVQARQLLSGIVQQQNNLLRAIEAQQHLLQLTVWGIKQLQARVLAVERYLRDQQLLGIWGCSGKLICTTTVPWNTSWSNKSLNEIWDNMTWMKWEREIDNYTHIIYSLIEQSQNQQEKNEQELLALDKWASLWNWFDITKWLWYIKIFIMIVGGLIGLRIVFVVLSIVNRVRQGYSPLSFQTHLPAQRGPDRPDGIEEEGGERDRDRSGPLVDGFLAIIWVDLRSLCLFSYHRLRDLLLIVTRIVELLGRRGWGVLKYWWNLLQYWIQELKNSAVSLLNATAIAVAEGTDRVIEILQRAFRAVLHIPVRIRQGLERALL

For 10-996 (antibody), the IC50 (TZM-bl neutralization) [1] was 0.04 µg/mL, the IC50 (TZM-bl neutralization) [2] was 0.173 µg/mL and the IC50 (TZM-bl neutralization) [3] was > 50 µg/mL. The IC50 (TZM-bl neutralization assay) [4] was 0.395 µg/mL, the IC80 (TZM-bl neutralization assay) [4] was 1.4 µg/mL and the IC50 (TZM-bl neutralization) [5] was 0.147 µg/mL. The IC80 (TZM-bl neutralization) [6] was > 50 µg/mL, the IC50 (TZM-bl neutralization) [7] was > 50 µg/mL and the IC80 (TZM-bl neutralization) [8] was 1.3 µg/mL. For the same substance, the IC80 (TZM-bl neutralization) [9] was > 50 µg/mL, the IC50 (TZM-bl neutralization) [10] was > 50 µg/mL and the IC50 (TZM-bl neutralization) [11] was 0.044 µg/mL. For the same substance, the IC80 (TZM-bl neutralization) [12] was 0.252 µg/mL, the IC80 (TZM-bl neutralization) [13] was 0.204 µg/mL and the IC80 (TZM-bl neutralization) [14] was > 50 µg/mL. For the same substance, the IC80 (TZM-bl neutralization) [15] was 0.627 µg/mL, the IC80 (TZM-bl neutralization) [16] was > 50 µg/mL and the IC50 (TZM-bl neutralization) [17] was 0.001 µg/mL. For the same substance, the IC80 (TZM-bl neutralization) [18] was > 50 µg/mL, the IC50 (TZM-bl neutralization) [19] was > 50 µg/mL and the IC80 (TZM-bl neutralization) [20] was > 50 µg/mL. The IC80 (TZM-bl neutralization) [21] was > 50 µg/mL, the IC50 (TZM-bl neutralization) [22] was 0.008 µg/mL and the IC80 (TZM-bl neutralization) [23] was > 50 µg/mL. For the same substance, the IC80 (TZM-bl neutralization) [24] was 0.101 µg/mL, the IC80 (TZM-bl neutralization) [25] was > 50 µg/mL and the IC80 (TZM-bl neutralization) [26] was > 50 µg/mL. The IC80 (TZM-bl neutralization) [27] was > 50 µg/mL, the IC80 (TZM-bl neutralization) [28] was 0.173 µg/mL and the IC80 (TZM-bl neutralization) [29] was > 50 µg/mL. The IC80 (TZM-bl neutralization) [30] was 34.6 µg/mL, the IC50 (TZM-bl neutralization assay) [31] was 0.256 µg/mL and the IC80 (TZM-bl neutralization assay) [31] was 0.891 µg/mL. For the same substance, the IC80 (TZM-bl neutralization) [32] was 0.144 µg/mL, the IC80 (TZM-bl neutralization) [33] was 0.251 µg/mL and the IC50 (TZM-bl neutralization) [34] was 0.413 µg/mL. The IC50 (TZM-bl neutralization) [35] was < 0.001 µg/mL, the IC50 (TZM-bl neutralization) [36] was > 50 µg/mL and the IC80 (TZM-bl neutralization) [37] was > 50 µg/mL. The IC80 (TZM-bl neutralization) [38] was 0.381 µg/mL, the IC50 (TZM-bl neutralization assay) [39] was 0.007 µg/mL and the IC80 (TZM-bl neutralization assay) [39] was 0.04 µg/mL. The IC80 (TZM-bl neutralization) [40] was 0.05 µg/mL, the IC50 (TZM-bl neutralization) [41] was 0.614 µg/mL and the IC50 (TZM-bl neutralization) [42] was > 50 µg/mL. For the same substance, the IC80 (TZM-bl neutralization) [43] was > 50 µg/mL, the IC50 (TZM-bl neutralization) [44] was 35.9 µg/mL and the IC50 (TZM-bl neutralization) [45] was > 50 µg/mL. The IC80 (TZM-bl neutralization) [46] was > 50 µg/mL, the IC50 (TZM-bl neutralization) [47] was > 50 µg/mL and the IC80 (TZM-bl neutralization) [48] was > 50 µg/mL. For the same substance, the IC50 (TZM-bl neutralization) [49] was 0.186 µg/mL and the IC80 (TZM-bl neutralization) [50] was > 50 µg/mL.

Reference: patent US12338277
